From patent publication US7749968B2, “Peptides for targeting the prostate specific membrane antigen” (The Johns Hopkins University, priority 2002, dated 2010)

Molecular target: T1, Tag-xPSM (Homo sapiens, UniProt Q04609)
T1 construct: made in house; host or cells: Sf-9 insect cells infected with recombinant baculovirus; protein harvested from the media
Assay: Stringent Tag-xPSM phage display, round 4 acid elution pool
Assay type: binding
Details: pH 2.2 pool
Method: As described above in Example 1, Tag-xPSM was used as a target for the in vitro selection of a commercially available cysteine-constrained heptapeptide phage library. For the initial round, 14 micrograms of S-protein-agarose immobilized Tag-xPSM was incubated with 2×10^11 PFU for 30 minutes at room temperature while rotating. Weakly bound phage were then washed off with three 5 minute rotating washes. One phage pool, referred to herein as the “pH 2.2 pool”, was eluted for ten minutes in pH 2.2 glycine buffer followed by neutralization in Tris buffer. Those phage still bound to Tag-xPSM were then eluted for one hour in 30 mM EDTA-Tris buffer. This pool is referred to herein as the “EDTA pool”. These two pools where then carried separately for the next three rounds. Stringency was increased in each round by changing Tag-xPSM substrate background, decreasing binding time, or increasing washing time (Table 3).
Twelve individual phage from each elution condition for rounds two, three, and four of Tag-xPSM phage display were isolated, amplified, and sequenced. All clones sequenced from rounds 2 and 3 were unique (Tables 4 and 5).

T1 sequence (Q04609 44-750 limits assumed): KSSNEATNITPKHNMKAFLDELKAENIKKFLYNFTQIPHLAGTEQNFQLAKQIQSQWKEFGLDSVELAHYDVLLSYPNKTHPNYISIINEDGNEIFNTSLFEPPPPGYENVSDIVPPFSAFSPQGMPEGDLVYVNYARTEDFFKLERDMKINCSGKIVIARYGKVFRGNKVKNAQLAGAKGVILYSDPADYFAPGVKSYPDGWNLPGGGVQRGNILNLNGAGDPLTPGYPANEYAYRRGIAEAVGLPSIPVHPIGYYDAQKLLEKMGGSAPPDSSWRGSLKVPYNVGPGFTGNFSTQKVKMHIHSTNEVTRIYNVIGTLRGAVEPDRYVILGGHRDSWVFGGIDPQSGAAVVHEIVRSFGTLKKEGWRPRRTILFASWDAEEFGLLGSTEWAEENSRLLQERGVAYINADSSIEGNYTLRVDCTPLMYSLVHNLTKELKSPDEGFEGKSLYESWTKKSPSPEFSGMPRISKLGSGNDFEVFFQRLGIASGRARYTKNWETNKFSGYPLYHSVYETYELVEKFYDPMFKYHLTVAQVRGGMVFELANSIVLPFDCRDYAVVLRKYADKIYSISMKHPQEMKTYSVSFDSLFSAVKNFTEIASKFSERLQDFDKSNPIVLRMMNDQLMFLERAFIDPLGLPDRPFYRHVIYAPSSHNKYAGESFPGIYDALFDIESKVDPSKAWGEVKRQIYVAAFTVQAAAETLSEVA

Share of the round 4 acid elution pool: 83%
Sequence: CLNTAPLAC [SEQ ID NO:60]
